In one assay the target is T1, SF3a60 (human (endogenous in HeLa), UniProt Q12874 1-501).
T1 sequence: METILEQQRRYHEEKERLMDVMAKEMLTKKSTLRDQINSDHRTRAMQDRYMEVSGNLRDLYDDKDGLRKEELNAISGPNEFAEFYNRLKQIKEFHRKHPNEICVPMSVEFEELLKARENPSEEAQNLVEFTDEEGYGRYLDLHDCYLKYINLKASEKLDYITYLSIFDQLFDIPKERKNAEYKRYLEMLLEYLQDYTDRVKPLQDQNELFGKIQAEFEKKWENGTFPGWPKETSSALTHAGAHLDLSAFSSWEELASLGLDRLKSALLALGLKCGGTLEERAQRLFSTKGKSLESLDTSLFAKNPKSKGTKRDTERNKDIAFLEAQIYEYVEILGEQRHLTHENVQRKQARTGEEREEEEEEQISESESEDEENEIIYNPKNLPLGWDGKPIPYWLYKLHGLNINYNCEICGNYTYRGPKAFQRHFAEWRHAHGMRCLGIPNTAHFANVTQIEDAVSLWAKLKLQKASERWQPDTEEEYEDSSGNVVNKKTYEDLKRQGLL
Kind of assay: co-IP.

The next assay addresses T2, SF3a120 (human (endogenous in HeLa), UniProt Q15459 1-793).
T2 sequence: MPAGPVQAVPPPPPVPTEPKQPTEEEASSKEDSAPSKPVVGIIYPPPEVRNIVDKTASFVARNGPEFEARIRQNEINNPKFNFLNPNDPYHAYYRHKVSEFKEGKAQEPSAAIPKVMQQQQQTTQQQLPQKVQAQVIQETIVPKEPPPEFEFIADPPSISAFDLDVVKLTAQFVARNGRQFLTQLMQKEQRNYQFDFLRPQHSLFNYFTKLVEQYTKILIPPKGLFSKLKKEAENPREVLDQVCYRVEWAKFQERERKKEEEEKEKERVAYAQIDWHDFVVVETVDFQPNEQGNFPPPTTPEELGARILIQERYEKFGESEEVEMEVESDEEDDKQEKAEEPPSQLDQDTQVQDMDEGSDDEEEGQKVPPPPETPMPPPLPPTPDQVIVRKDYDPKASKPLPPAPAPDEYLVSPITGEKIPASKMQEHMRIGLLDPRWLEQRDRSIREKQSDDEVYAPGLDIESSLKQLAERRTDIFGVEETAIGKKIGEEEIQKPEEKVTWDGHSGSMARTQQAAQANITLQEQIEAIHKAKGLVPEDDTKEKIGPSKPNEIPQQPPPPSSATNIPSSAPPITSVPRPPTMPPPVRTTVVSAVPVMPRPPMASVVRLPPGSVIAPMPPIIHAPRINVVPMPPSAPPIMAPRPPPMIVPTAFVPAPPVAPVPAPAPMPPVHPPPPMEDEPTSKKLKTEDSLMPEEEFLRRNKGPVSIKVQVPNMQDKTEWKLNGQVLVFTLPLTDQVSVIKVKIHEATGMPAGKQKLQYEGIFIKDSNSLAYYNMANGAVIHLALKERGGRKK
Briefly: co-IP.

B1: SF3a66 (natural protein)
chain: MDFQHRPGGKTGSGGVASSSESNRDRRERLRQLALETIDINKDPYFMKNHLGSYECKLCLTLHNNEGSYLAHTQGKKHQTNLARRAAKEAKEAPAQPAPEKVKVEVKKFVKIGRPGYKVTKQRDSEMGQQSLLFQIDYPEIAEGIMPRHRFMSAYEQRIEPPDRRWQYLLMAAEPYETIAFKVPSREIDKAEGKFWTHWNRETKQFFLQFHFKMEKPPAPPSLPAGPPGVKRPPPPLMNGLPPRPPLPESLPPPPPGGLPLPPMPPTGPAPSGPPGPPQLPPPAPGVHPPAPVVHPPASGVHPPAPGVHPPAPGVHPPAPGVHPPTSGVHPPAPGVHPPAPGVHPPAPGVHPPAPGVHPPAPGVHPPPSAGVHPQAPGVHPAAPAVHPQAPGVHPPAPGMHPQAPGVHPQPPGVHPSAPGVHPQPPGVHPSNPGVHPPTPMPPMLRPPLPSEGPGNIPPPPPTN
Consider B1, for which the binding result with SF3a60 and with SF3a120 was “binds” in each case.

The record behind these values is publication PMC2133165 (The Journal of Cell Biology, 1999).
